Measured values as given in US20110091971A1, “Differentiation of Pluripotent Stem Cells” (priority 2008, published 2011).

Tested on: H1 or H9 human embryonic stem cells
Test: Activin A bioassay: differentiation of human embryonic stem cells to definitive endoderm, cell number and SOX17 intensity by high content analysis (96-well, four days);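 on Cell Number average: Raw total cell count per well from high content imaging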;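 on Sox 17 Intensity average: total fluorescence of the cell multiplied by cell area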
Type: cell-based
Details: for Sox 17 Intensity % of control: control = R&D Sys Activin A 100 ng/ml on same plate
Method in brief: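 Read-out was cell count and integrated SOX17 immunofluorescence by high-content imaging, with each well divided by the mean of the 100 ng/ml activin A control. Over the four-day culture, test samples were given in DMEM:F12 with 0.5% FCS plus 20 ng/ml Wnt3a for the first two days and in 2% FCS alone for the last two. Cells were H1 or H9 hESC clusters grown on Matrigel.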

[1] = supernatant concentration 10x, assay dilution 1:20, assay plates #007, #009, #010
[2] = supernatant concentration 10x, assay dilution 1:20
[3] = supernatant concentration 1x, assay dilution 1:20
[4] = supernatant concentration 10x, assay dilution 1:40

Molecule | Cell Number average [1] | Sox 17 Intensity average [1] | Sox 17 Intensity % of control [2] [%] | Cell Number average [3] | Sox 17 Intensity average [3] | Sox 17 Intensity % of control [3] [%] | Cell Number average [2] | Sox 17 Intensity average [2] | Cell Number average [4] | Sox 17 Intensity average [4] | Sox 17 Intensity % of control [4] [%]
ACTN69: activin A variant peptide, SEQ ID 70 (protein) GLECDGKVNICCKKQSFGKTKDIGWNDWIIAPSGYHGGGCTGECPSHIAGTSGSSLSFHSTVINHYRMRGHSPFANLKSCCSPTKLRPMSMLYYDDGQNIIKKDIQQMVVEECGCT | 20178 | 2.73E+07 | 19.4 |  |  |  |  |  |  |  | 
ACTN81: activin A variant peptide, SEQ ID 82 (protein) GLECDGKVNICCKKQLFGKTKDIGWNDWIIAPSGYHGGGCTGECPSHIAGTSGSSLSFHSTVINHYRMRGHSPVANLKSCCSPTKLRPMSMLYYDDGQNIIKKDIQRMVVEECGCT | 19897 | 1.60E+07 | 11.4 |  |  |  |  |  |  |  | 
ACTN77: activin A variant peptide, SEQ ID 78 (protein) GLECDGKVNICCKKQMFGKAKDIGWNDWIIAPSGYHGGGCTGECPSHIAGTSGSSLSFHSTVINHYRMRGHSPWANLKSCCSPTKLRPMSMLYYDDGQNIIKKDIQNMVVEECGCT | 17696 | 2.82E+07 | 20.0 |  |  |  |  |  |  |  | 
ACTN91: activin A variant peptide, SEQ ID 92 (protein) GLECDGKVNICCKKQSFGRTKDIGWNDWIIAPSGYHGGGCSGECPSHIAGTSGSSLSFHSTVINHYRMRGHSPWANLKSCCSPTKLRPMSMLYYDDGQNIIKKDIQNMVVEECGCT | 17043 | 1.12E+07 | 7.9 |  |  |  |  |  |  |  | 
ACTN94: activin A variant peptide, SEQ ID 95 (protein) GLECDGKVNICCKKQSFGQAKDIGWNDWIIAPSGYHGGGCTGECPSHIAGTSGSSLSFHSTVINHYRMRGHSPWANLKSCCSPTKLRPMSMLYYDDGQNIIKKDIQRMVAEECGCT | 20142 | 1.51E+07 | 10.7 |  |  |  |  |  |  |  | 
ACTN7: activin A variant peptide, SEQ ID 8 (protein) GLECDGKVNYCCKKQHFVSFKDIGWNDWIIAPSGYHANSCSGLCPSHIAGTSGSSLSFHSTVINHYRMRGHSPFSQMGSCCIPTKLRPMSMLYYDDGQNIIKKDIQNMIVEECGCS |  |  | 10.4 | 1133 | 1.108E+07 | 6.0 | 2714 | 1.904E+07 | 1387 | 1.099E+07 | 6.0
ACTN18: activin A variant peptide, SEQ ID 19 (protein) GLECDGKVNYCCKKQNFVSFKDIGWNDWIIAPSGYHANKCSGKCPSHIAGTSGSSLSFHSTVINHYRMRGHSPFSDMGACCIPTKLRPMSMLYYDDGQNIIKKDIQNMIVEECGCS |  |  | 4.7 | 6078 | 5.68E+05 | 2.2 | 9676 | 1.22E+06 | 11683 | 2.22E+05 | 0.9
ACTN11: activin A variant peptide, SEQ ID 12 (protein) GLECDGKVNLCCKKQLFVSFKDIGWNDWIIAPSGYHANHCSGLCPSHIAGTSGSSLSFHSTVINHYRMRGHSPFAQMGACCIPTKLRPMSMLYYDDGQNIIKKDIQNMIVEECGCS |  |  | 156.8 | 5239 | 3.47E+06 | 13.4 | 10321 | 4.06E+07 | 9493 | 2.79E+07 | 107.8
ACTN10: activin A variant peptide, SEQ ID 11 (protein) GLECDGKVNYCCKKQDFVSFKDIGWNDWIIAPSGYHANRCSGLCPSHIAGTSGSSLSFHSTVINHYRMRGHSPFAQMGSCCIPTKLRPMSMLYYDDGQNIIKKDIQNMIVEECGCS |  |  | 4.2 | 7417 | 7.52E+05 | 2.9 | 8942 | 1.08E+06 | 7333 | 5.59E+05 | 2.2
ACTN20: activin A variant peptide, SEQ ID 21 (protein) GLECDGKVNLCCKKQNFVSFKDIGWNDWIIAPSGYHANKCGGLCPSHIAGTSGSSLSFHSTVINHYRMRGHSPFAQMGACCIPTKLRPMSMLYYDDGQNIIKKDIQNMIVEECGCS |  |  | 0.5 | 9000 | 1.26E+04 | 0.0 | 10217 | 1.52E+05 | 12284 | 9.03E+03 | 0.0
ACTN8: activin A variant peptide, SEQ ID 9 (protein) GLECDGKVNYCCKKQDFVSFKDIGWNDWIIAPSGYHANKCSGKCPSHIAGTSGSSLSFHSTVINHYRMRGHSPFSDMGSCCVPTKLRPMSMLYYDDGQNIIKKDIQNMIVEECGCS |  |  | 6.4 | 363 | 5.578E+06 | 3.0 | 1419 | 1.181E+07 | 372 | 3.869E+06 | 2.1
ACTN12: activin A variant peptide, SEQ ID 13 (protein) GLECDGKVNYCCKKQNFVSFKDIGWNDWIIAPSGYHANECSGLCPSHIAGTSGSSLSFHSTVINHYRMRGHSPFSQMGSCCIPTKLRPMSMLYYDDGQNIIKKDIQNMIVEECGCS |  |  | 29.6 | 5420 | 1.10E+06 | 4.3 | 6633 | 7.65E+06 | 6317 | 2.43E+06 | 9.4
ACTN19: activin A variant peptide, SEQ ID 20 (protein) GLECDGKVNLCCKKQDFVSFKDIGWNDWIIAPSGYHANKCGGKCPSHIAGTSGSSLSFHSTVINHYRMRGHSPFANMGSCCIPTKLRPMSMLYYDDGQNIIKKDIQNMIVEECGCS |  |  | 0.1 | 11017 | 4.09E+04 | 0.1 | 11587 | 3.96E+04 | 12549 | 4.86E+03 | 0.0
ACTN17: activin A variant peptide, SEQ ID 18 (protein) GLECDGKVNYCCKKQDFVSFKDIGWNDWIIAPSGYHANKCGGKCPSHIAGTSGSSLSFHSTVINHYRMRGHSPFSDMGACCVPTKLRPMSMLYYDDGQNIIKKDIQNMIVEECGCS |  |  | 1.1 | 10154 | 1.21E+06 | 4.7 | 12596 | 2.83E+05 | 10807 | 4.38E+05 | 1.7
ACTN14: activin A variant peptide, SEQ ID 15 (protein) GLECDGKVNLCCKKQHFVSFKDIGWNDWIIAPSGYHANRCDGLCPSHIAGTSGSSLSFHSTVINHYRMRGHSPFAQMGSCCVPTKLRPMSMLYYDDGQNIIKKDIQNMIVEECGCS |  |  | 14.1 | 4968 | 1.50E+06 | 5.8 | 6278 | 3.66E+06 | 5584 | 4.73E+06 | 18.3
ACTN9: activin A variant peptide, SEQ ID 10 (protein) GLECDGKVNYCCKKQDFVSFKDIGWNDWIIAPSGYHANKCTGKCPSHIAGTSGSSLSFHSTVINHYRMRGHSPFADLGACCIPTKLRPMSMLYYDDGQNIIKKDIQNMIVEECGCS |  |  | 2.6 | 11391 | 5.97E+05 | 2.3 | 11456 | 6.63E+05 | 9608 | 4.19E+05 | 1.6
